What was measured:
[1] = test system: s-variegin
[2] = target: human plasma derived thrombin (human), P00734; experiment: cell-based or functional assay

| Molecule | cleavage of s-variegin by thrombin at 24° C. (RP-HPLC), extent at 360 min [1] | percent inhibition of thrombin amidolytic activity at equimolar concentration [2] |
| --- | --- | --- |
| recombinant α-thrombin (based on human α-thrombin sequence) | 360 min was needed for ~90% of cleavage | – |
| MHKTAPPFDFEAIPEEYLDDES (modifications not checked) [MH22] | – | 15% |
| MHKTAPPFDFEAIPEEYL (modifications not checked) [MH18] | – | 15% |

Source: US20120135931A1
